Test results as given in the DeepSol protein solubility set.

Assay: soluble on expression in E. coli; label from the status in PepcDB or PDB records

Row | Sequence | soluble on expression in E. coli
1 | GPGSMRVDVEAVFEKIRPALEVAEVGAWSKTDITTFMSLVSGFCDIQRQQLRARRGKRRDGHDCEQNVDKEGGCEDGCGVRGEDGDKEDEASLEADSVVVLEIRRSLTKLRHYLQKRIPYGSISEPVVPPAPTSPQEGENSCGGRGAYKALQSSKPVEPPVCAVDAFLYLEEDIDALADQGHISREYCRSCGSVDIGLCQFITHSFSLEQLIFLSCFLLPSFGDTSYCLTSDNVWRPRHKNCHTVAAAFSCEHVVEVGSRLGIVPMSCYFASEQQRLLNTRRVTAIELDKELVALQQEVFQKFARGPTAAHLNLVHSDCFEGEGLEALRSADIIILHNIFEYFTASAEEHLRSWKRLRAAVVRSGQLLVCCPPLQETLAAFSEDCVRKVFINEQDKVDFVHVHQSNSNAGRISRKRCRQPPQEHSFTLDQWWRSWVKEIDVEHIRRSFLTAQRFCEEDHPCDSSYGDADDELVKELKDMRVYMVQ | not soluble
2 | MSLTDNSKIRVVVGMSGGVDSSVTALLLKEQGYDVIGVFMKNWDDTDEFGVCTATEDYKDVAAVADKIGIPYYSVNFEKEYWDRVFEYFLAEYRAGRTPNPDVMCNKEIKFKAFLDYAMTLGADYVATGHYAQVKRDENGTVHMLRGADNGKDQTYFLSQLSQEQLQKTLFPLGHLQKSEVREIAERAGLATAKKKDSTGICFIGEKNFKQFLSQYLPAQKGRMMTIDGRDMGEHAGLMYYTIGQRGGLGIGGQHGGDNQPWFVVGKDLSQNILYVGQGFYHEALMSNSLDASVIHFTREMPEEFTFECTAKFRYRQPDSHVAVHVRGDKAEVVFAEPQRAITPGQAVVFYDGKECLGGGMIDMAYKNGQPCQYIEGHHHHHH | soluble
3 | MNHNDVLRSLRYMLKVNDAKMAEIIGLSGLEVHPLVLATYLKKEEEEGFVRCPERVMAHFLDGLVIYRRGKDESRPQQPIELPVTNNLILKKLRVAFELKEDDLHAILKSVNFPVSKPELSALFRKAGHDNYRPCGDQLMRNFLKGLTLRVRG | not soluble
4 | MGSDKIHHHHHHMTTINFLGGCREVGRSAVMVDGIMIDYGVKPSDPPEFPLNGLSPRAVILSHGHLDHIGVAPNLMYYDPEVILTPPSHELSMILLRDSMKIMHPPPFTKRELRQFESNIREVEYEEPITVGDYEVEFFNAGHIPGSASIHMRGDVNILYSGDIRLEETRLLEGANTDYPETDILIVESTYFGTEHPDRKELERAFVESVIDTLDMGGHAIIPAFAVGRTQEVLMILERYGITPYVDGMGKEVAQVIQRHPDFIRSPKELKRAVRNAIPVEWRQRERVLEEPSAVVTTAGMLNGGPAMFYISRLYNDEKSKILLTGYQVEGTNGDMALKTGMLNLGTRVVKLKMGVEQYDFSAHADDRQLKEYVKRVVDRGAEVVFTIHGEETEAFAEWIKDNIGVEAYAPKNGEIYVI | not soluble
5 | MGNFHATTIFAVHHNGECAMAGDGQVTMGNAVVMKHTARKVRKLFQGKVLAGFAGSVADAFTLFEMFEGKLEEYNGNLQRAAVEMAKQWRGDKMLRQLEAMLIVMDKTTMLLVSGTGEVIEPDDGILAIGSGGNYALSAGRALKQYASEHLTAKQIAKASLEIAGDICVYTNHNIIVEEL | not soluble
6 | MEKGSVMSLFIYMSQSMFNFDALTPDFMWYALESIGIRAESGFLPLNSYENRVYQFTDEERRRYVVKFYRPERWSNEQIQEEHDFTLELIDSEIPVAPPVRINGNTLHHYQGYGFALFESVGGRQFEVDNLEQLEGVGRFLGRIHKVGSRQAFQHRPTIGLQEYLYQPREILQNANMIPMHLENSFFNDLDMLIKAIENHWQGSFATIRLHGDCHPGNILWRDGPMFVDLDDSRNGPAVQDLWMLLNGERQDKLMQLDIILEAYQEFCDFNAAELKLIEPLRGLRMVHYMAWLAKRWHDPAFPLAFPWFNEPKYWEGQVLAFKEQIASLEEAPLSLMPQWLEHHHHHH | not soluble
7 | MPHMSEPQRLFFAIDLPAEIREQIIHWRATHFPPEAGRPVAADNLHLTLAFLGEVSAEKEKALSLLAGRIRQPGFTLTLDDAGQWLRSRVVWLGMRQPPRGLIQLANMLRSQAARSGCFQSNRPFHPHITLLRDASEAVTIPPPGFNWSYAVTEFTLYASSFARGRTRYTPLKRWALTQ | not soluble
8 | MTEDQVEILEYNFNKVNKHPDPTTLCLIAAEAGLTEEQTQKWFKQRLAEWRRSEGLPSECRSVTD | soluble
9 | MAHHHHHHMTILHNPGLPRVLNRITPQRLELTLMLIKERKKKLRYLGSYLQHYNDRTFLYNAMGGLNGTKFIIERHHHRAQYCHPTLHNERYSVRTIKMKGAQFDQVGNFTRNTWDCSVATTNLFQDATFRRHLSAIHKDEAIALLEGWGVKYVLLDEVRKPSVQDSIYVRHNLYIHKFPHIPDPVTNVYHGDADWKWKGDEKIDYTSYGASTKDERNTFQSLWSAAVRESKDSGVAKTVQAGKKL | not soluble
10 | MSLTERLSPVEIMGALVAFPTVSRDTNLPLVDWVETYLAGHGITAHRWVDPEQPHKAALFAHVGPWEEGAVVLSGHTDVVPIDGQPWDSDPFTVVERDGKYFGRGTCDMKGFDALAIWALVEGRYRDLKRPLQLALSFDEEVGCTGAPPMIVEMQNHLPKGSAVIVGEPSMMQAVTGHKGGFGYDTRVLGFEVHSSIMHTGVNAIMAAAPLIDWANHRNAENRAATPSALAAMFDPPWTTCHVGMISGGTAHNITAKECRFAMDFRIVPGEAKERWRDAYFAVAREVEAQMQAVHPEARIDLSEQFHVPPLVPEQEGEAEMLVRALTGDNAGHVVSYGTEAGQFQEAGYSAVICGPGDIAQAHQPNEFITVAQFDAGHGFMARLLDRLSEGHHHHHH | soluble
11 | GPGSMSGAGNLRSNRRREMDYMRLCNSTRKVYPSDTVAEFWVEFKGPEGTPYEDGTWMLHVQLPSDYPFKSPSIGFCNRILHPNVDERSGSVCLDVINQTWTPMYQLENIFDVFLPQLLRYPNPSDPLNVQAAHLLHADRVGFDALLREHVSTHATPQKALESIPEAYRPHDNTHEEEPDEANAKDTASDGPVNAGHSKGLTDSSVTPTEDHRVMHDDIAIDGDEDVEAEYEPEEIDL | soluble
12 | MAREVKLTKAGYERLMQQLERERERLQEATKILQELMESSDDYDDSGLEAAKQEKARIEARIDSLEDILSRAVILEEGSGEVIGLGSVVELEDPLSGERLSVQVVSPAEANVLDTPMKISDASPMGKALLGHRVGDVLSLDTPKGRREFRVVAIHG | soluble
13 | MSTSGSGGGNTPDLSKENVASSPNANPKKNADTESSGGSKNNRQRRRSNTKGDGSNSRNGSRTNSVSNSKNQSNRKDWTDRKSFSQGGINVKSKSPGDDHKRTRSSNSQSAKRNARDSTRTMSQASNGEGLDYSDEYELDEPFSDSDDEDSRPKKPEKMSLTVARGRIRTLSGTVPVVGYSPRWGGPTMCVSCLEFFDLPEQISGFADHLLKEHKIVVSEMNLIVDPKRYIEHWRQRFAKESIDKIFPRIEPSEGDSYFGETDYYYLMSENVAEDRSLRQRLAMRRLEEALQCQQREREDTSFQLQCIFCRYNARGNRSKIIHHLYMIHHLNLGSPDNLVFVTEYIEHLKEKLHRNECIYCEKIFPDRNTLMDHMRKRNHREVNPKNHYYDKFYIINYLELGKRWLDVLAEDFEDTMPTFQDSDEEEEDNEWCEWQEDNLDADETRVVCLLCDASEDNAQSLLEHMKTTHEFDLLKNVSDDKLNSYQRLRLINYIRKQNYHADCWVCQKTEFENPLALQKHILEHKPLSHLPDASIWDTEENLVPIFGNDHFLWMLESILEENEITCSSDDEGESEERFSKLVLESKSNTVEGVIAEDLPELSELNEDDLNALM | not soluble
14 | AIAGCLFSVPEGGYLEVNEERSAGAYDSLSTASGIDDLHDERQPKAAYSMEDSSADLVAEDGAAVHQEVLNAHDDAWCRFDATSDATNEGAAAGGIGAPPSPLDLSLDSVVQQAYQDRVLVVFSGKAFGIALQLQMHWAALGASSAAPECVMDACVPESLLRAVHACLRAHMHACERIANRWNPDSELSAACSSAHPKKAVEVGTILYALLAEAHRLHRVTGGRFDPTCGALWRGFRATLRSSALQRPPQGRAFST | soluble
15 | MSDYQVLLYYKYTTIDDPETFAKEHLAACKEMELKGRILVATEGINGTVSGTVEATNKYMDYMANDARFADMVFKIDAADAHAFKKMHVRPRAEIVSLSLEEDVNPLEVTGTYLEPSEFREALLDEDTVILDARNDYEFDIGHFRGAVRPDIQNFRELPGWIEDNREQLADKKIVTYCTGGIRCEKFSGWLKTAGFDDVSQLHGGIATYGKNEETKGELWDGQMYVFDERIAVPINQVNPTIVGKDYFDGTPCERYINCANPYCNKQILASIENEKKYLRSCSHDCRVHPANLYTKNLSKEEFTERLQAIDETLPEMVQ | not soluble
